From the supplement of paper PMC10065799, “High-throughput profiling of sequence recognition by tyrosine kinases and SH2 domains using bacterial peptide display” (eLife, 2023)

biological target: Fes (UniProt P07332); assay: phosphorylation enrichment, bacterial display (enrichment ratio); higher = better substrate or ligand; peptides without Tyr show the background
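Further: 11-residue human phosphosite peptides and single-mutation variants displayed on the E. coli surface, counted by deep sequencing, each peptide's frequency after selection divided by its frequency in the unselected input library; frequency after pTyr selection over input frequency; kinase dosed for 20-30% of maximal phosphorylation in three min.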

Fes, sequence (P07332 whole entry, looked up): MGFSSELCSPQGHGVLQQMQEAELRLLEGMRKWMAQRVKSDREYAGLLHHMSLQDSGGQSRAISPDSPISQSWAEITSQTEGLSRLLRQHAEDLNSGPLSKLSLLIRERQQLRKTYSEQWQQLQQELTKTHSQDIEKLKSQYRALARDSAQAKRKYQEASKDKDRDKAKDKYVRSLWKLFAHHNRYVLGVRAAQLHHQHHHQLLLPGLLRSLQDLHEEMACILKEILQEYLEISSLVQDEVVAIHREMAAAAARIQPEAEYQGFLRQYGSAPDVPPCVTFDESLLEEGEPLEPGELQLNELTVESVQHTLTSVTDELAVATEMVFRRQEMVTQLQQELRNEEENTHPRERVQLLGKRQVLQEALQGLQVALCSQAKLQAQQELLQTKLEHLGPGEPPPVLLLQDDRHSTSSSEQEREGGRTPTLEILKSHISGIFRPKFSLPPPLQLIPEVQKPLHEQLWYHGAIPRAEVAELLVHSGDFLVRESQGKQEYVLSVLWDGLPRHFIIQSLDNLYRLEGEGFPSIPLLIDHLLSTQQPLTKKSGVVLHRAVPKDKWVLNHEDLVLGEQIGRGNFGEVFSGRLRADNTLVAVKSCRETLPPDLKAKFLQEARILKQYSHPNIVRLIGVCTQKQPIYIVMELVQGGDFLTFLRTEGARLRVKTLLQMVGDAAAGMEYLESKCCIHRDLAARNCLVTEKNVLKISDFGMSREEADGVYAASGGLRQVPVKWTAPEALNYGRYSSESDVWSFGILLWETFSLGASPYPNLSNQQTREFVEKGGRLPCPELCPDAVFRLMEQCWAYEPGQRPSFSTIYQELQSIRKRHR

Row | Sequence | phosphorylation enrichment
1 | AVRFIYTIDGS [DCX_Y105_G100A_YF] | 1.28
2 | EPFELYCEMGS [CBL_Y371_Q367P_YF] | 1.55
3 | DPHQQYYIAMD [TBX15_Y159] | 0.881
4 | ATQDDYVLEVR [PTPRZ1_Y2179] | 1.23
5 | NVTGHYISPFH [PPA2_Y59] | 0.542
6 | FYVVRYCWLRR [MPZ_Y181] | 0.747
7 | AGDGRYEVLFL [SEMA3F_Y478_A474G] | 1.02
8 | EVASVYQSYQP [MAVS_Y92] | 0.802
9 | RLRKYYLGKYL [KLB_Y906] | 0.728
10 | TGNGFYFRVFS [MYBPC3_Y1136_I1131T_YF] | 1.33
11 | PVKTPYSLKRW [BMPR2_Y979_R974P] | 1.49
12 | LTNDRYLATLT [IL6ST_Y396] | 1.07
13 | STKELYEKYMI | 0.825
14 | VLALWYFFLTN [ZDHHC23_Y127_H132N_YF] | 1.68
15 | GPTLSYGRDGR [MATR3_Y158] | 0.526
16 | RGKDNYETSQL [SPP1_Y225_S224N] | 0.773
17 | SLDLSYYPTSS [EMD_Y181] | 0.947

Row | Sequence | phosphorylation enrichment
18 | VPFAQYLAMNK [HARS1_Y138_R137Q] | 0.639
19 | PYRFIYMAVQH [PTPN11_Y515_Q510P] | 2.08
20 | QITQVCGFYDE [PPP2CA_Y127_Y127C] | 1.57
21 | TVQIMYGCDVG [HLA-A_Y123_I119V] | 1.22
22 | SIFKDYFRFNF [PLA2G2D_Y85_YF] | 1.19
23 | KIKLNYTLPQD [NRAP_Y523_N519I] | 0.88
24 | EFEGLYQEGGG [TMEM159_Y159] | 0.939
25 | EEQKKYFNAMK [SCN5A_Y1494_YF] | 0.866
26 | TEDELYQLFLQ [RASGRP2_Y378_S381F] | 1.56
27 | SLKEFYGEDAK [ALDH3A1_Y272] | 1.08
28 | FPQARYHWLVL [APTX_Y214_K211Q_YF] | 1.22
29 | FADIAYNYHHG [PAH_Y166_R169H] | 0.803
30 | DHFNQYEQQKM [CHD7_Y75_YF] | 0.744
31 | ALAPKYHGGGG [HBB_Y146_H144P] | 0.506
32 | NFDRVYIFHLR [MYOF_Y1137_YF] | 1.19
33 | KYLENYYDLKK [MMP3_Y41] | 0.99

biological target: Jak2 (UniProt O60674); assay: as above
Sequence (O60674 whole entry, looked up): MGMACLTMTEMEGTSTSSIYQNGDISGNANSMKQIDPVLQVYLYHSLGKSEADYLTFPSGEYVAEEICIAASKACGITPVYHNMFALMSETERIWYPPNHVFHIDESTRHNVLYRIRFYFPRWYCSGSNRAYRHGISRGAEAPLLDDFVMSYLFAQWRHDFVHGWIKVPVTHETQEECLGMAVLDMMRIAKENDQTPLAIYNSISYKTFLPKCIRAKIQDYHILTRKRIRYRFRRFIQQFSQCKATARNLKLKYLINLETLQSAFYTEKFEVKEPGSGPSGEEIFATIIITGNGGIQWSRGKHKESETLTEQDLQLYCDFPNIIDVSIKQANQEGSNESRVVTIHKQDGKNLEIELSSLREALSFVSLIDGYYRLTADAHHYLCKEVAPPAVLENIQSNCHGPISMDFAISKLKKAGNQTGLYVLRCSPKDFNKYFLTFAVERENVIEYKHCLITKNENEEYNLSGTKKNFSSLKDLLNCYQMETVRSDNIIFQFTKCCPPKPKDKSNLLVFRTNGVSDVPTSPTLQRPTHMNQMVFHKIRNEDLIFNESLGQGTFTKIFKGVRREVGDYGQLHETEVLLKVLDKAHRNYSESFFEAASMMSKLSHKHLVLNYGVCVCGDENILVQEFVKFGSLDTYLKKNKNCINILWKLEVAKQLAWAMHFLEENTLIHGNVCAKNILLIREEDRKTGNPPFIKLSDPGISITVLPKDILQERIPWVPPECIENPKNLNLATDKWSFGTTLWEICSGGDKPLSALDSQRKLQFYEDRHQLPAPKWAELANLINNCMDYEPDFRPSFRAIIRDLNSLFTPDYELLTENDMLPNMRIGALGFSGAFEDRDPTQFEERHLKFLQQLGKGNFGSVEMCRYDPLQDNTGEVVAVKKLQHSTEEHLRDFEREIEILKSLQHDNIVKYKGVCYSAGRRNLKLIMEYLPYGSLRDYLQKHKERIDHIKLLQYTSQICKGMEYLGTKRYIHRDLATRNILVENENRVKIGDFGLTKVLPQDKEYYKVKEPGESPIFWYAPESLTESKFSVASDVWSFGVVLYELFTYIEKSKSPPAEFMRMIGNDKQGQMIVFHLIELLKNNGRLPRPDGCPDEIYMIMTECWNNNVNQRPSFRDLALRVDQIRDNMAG

Row | Sequence | phosphorylation enrichment
34 | AVRFIYTIDGS [DCX_Y105_G100A_YF] | 1.27
35 | EPFELYCEMGS [CBL_Y371_Q367P_YF] | 1.38
36 | DPHQQYYIAMD [TBX15_Y159] | 0.996
37 | ATQDDYVLEVR [PTPRZ1_Y2179] | 1.08
38 | NVTGHYISPFH [PPA2_Y59] | 0.492
39 | FYVVRYCWLRR [MPZ_Y181] | 0.596
40 | AGDGRYEVLFL [SEMA3F_Y478_A474G] | 0.927
41 | EVASVYQSYQP [MAVS_Y92] | 0.661
42 | RLRKYYLGKYL [KLB_Y906] | 0.662
43 | TGNGFYFRVFS [MYBPC3_Y1136_I1131T_YF] | 1.32
44 | PVKTPYSLKRW [BMPR2_Y979_R974P] | 1.36
45 | LTNDRYLATLT [IL6ST_Y396] | 0.97
46 | STKELYEKYMI | 0.69
47 | VLALWYFFLTN [ZDHHC23_Y127_H132N_YF] | 1.91
48 | GPTLSYGRDGR [MATR3_Y158] | 0.449
49 | RGKDNYETSQL [SPP1_Y225_S224N] | 0.74
50 | SLDLSYYPTSS [EMD_Y181] | 4.37

Row | Sequence | phosphorylation enrichment
51 | VPFAQYLAMNK [HARS1_Y138_R137Q] | 0.838
52 | PYRFIYMAVQH [PTPN11_Y515_Q510P] | 1.08
53 | QITQVCGFYDE [PPP2CA_Y127_Y127C] | 1.19
54 | TVQIMYGCDVG [HLA-A_Y123_I119V] | 0.955
55 | SIFKDYFRFNF [PLA2G2D_Y85_YF] | 2.8
56 | KIKLNYTLPQD [NRAP_Y523_N519I] | 0.721
57 | EFEGLYQEGGG [TMEM159_Y159] | 0.781
58 | EEQKKYFNAMK [SCN5A_Y1494_YF] | 0.672
59 | TEDELYQLFLQ [RASGRP2_Y378_S381F] | 1.3
60 | SLKEFYGEDAK [ALDH3A1_Y272] | 0.903
61 | FPQARYHWLVL [APTX_Y214_K211Q_YF] | 1.28
62 | FADIAYNYHHG [PAH_Y166_R169H] | 0.567
63 | DHFNQYEQQKM [CHD7_Y75_YF] | 0.535
64 | ALAPKYHGGGG [HBB_Y146_H144P] | 0.423
65 | NFDRVYIFHLR [MYOF_Y1137_YF] | 1.18
66 | KYLENYYDLKK [MMP3_Y41] | 0.782

biological target: Hck (UniProt P08631); assay: as above
Sequence (P08631 whole entry, looked up): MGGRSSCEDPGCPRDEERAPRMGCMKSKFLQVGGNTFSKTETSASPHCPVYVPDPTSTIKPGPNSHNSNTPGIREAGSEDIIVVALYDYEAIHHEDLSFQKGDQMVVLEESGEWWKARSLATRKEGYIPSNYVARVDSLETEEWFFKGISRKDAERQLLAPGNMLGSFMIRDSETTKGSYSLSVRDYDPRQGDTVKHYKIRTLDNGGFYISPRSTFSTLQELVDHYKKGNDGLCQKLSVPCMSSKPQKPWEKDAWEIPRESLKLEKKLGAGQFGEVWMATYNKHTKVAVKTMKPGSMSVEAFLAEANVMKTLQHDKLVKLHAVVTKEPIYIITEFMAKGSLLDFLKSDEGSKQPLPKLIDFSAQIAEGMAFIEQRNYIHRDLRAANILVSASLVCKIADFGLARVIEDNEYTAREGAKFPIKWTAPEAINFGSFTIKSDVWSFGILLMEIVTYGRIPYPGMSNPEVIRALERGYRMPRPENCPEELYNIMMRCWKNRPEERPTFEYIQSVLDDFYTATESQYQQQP

Row | Sequence | phosphorylation enrichment
67 | AVRFIYTIDGS [DCX_Y105_G100A_YF] | 0.67
68 | EPFELYCEMGS [CBL_Y371_Q367P_YF] | 1.51
69 | DPHQQYYIAMD [TBX15_Y159] | 0.669
70 | ATQDDYVLEVR [PTPRZ1_Y2179] | 0.56
71 | NVTGHYISPFH [PPA2_Y59] | 0.486
72 | FYVVRYCWLRR [MPZ_Y181] | 0.567
73 | AGDGRYEVLFL [SEMA3F_Y478_A474G] | 0.772
74 | EVASVYQSYQP [MAVS_Y92] | 7.42
75 | RLRKYYLGKYL [KLB_Y906] | 0.571
76 | TGNGFYFRVFS [MYBPC3_Y1136_I1131T_YF] | 0.456
77 | PVKTPYSLKRW [BMPR2_Y979_R974P] | 0.427
78 | LTNDRYLATLT [IL6ST_Y396] | 0.463
79 | STKELYEKYMI | 0.72
80 | VLALWYFFLTN [ZDHHC23_Y127_H132N_YF] | 0.62
81 | GPTLSYGRDGR [MATR3_Y158] | 0.379
82 | RGKDNYETSQL [SPP1_Y225_S224N] | 0.56
83 | SLDLSYYPTSS [EMD_Y181] | 0.617

Row | Sequence | phosphorylation enrichment
84 | VPFAQYLAMNK [HARS1_Y138_R137Q] | 0.54
85 | PYRFIYMAVQH [PTPN11_Y515_Q510P] | 5.48
86 | QITQVCGFYDE [PPP2CA_Y127_Y127C] | 0.865
87 | TVQIMYGCDVG [HLA-A_Y123_I119V] | 0.567
88 | SIFKDYFRFNF [PLA2G2D_Y85_YF] | 0.481
89 | KIKLNYTLPQD [NRAP_Y523_N519I] | 0.462
90 | EFEGLYQEGGG [TMEM159_Y159] | 0.842
91 | EEQKKYFNAMK [SCN5A_Y1494_YF] | 0.459
92 | TEDELYQLFLQ [RASGRP2_Y378_S381F] | 3.67
93 | SLKEFYGEDAK [ALDH3A1_Y272] | 0.501
94 | FPQARYHWLVL [APTX_Y214_K211Q_YF] | 0.543
95 | FADIAYNYHHG [PAH_Y166_R169H] | 0.494
96 | DHFNQYEQQKM [CHD7_Y75_YF] | 0.47
97 | ALAPKYHGGGG [HBB_Y146_H144P] | 0.348
98 | NFDRVYIFHLR [MYOF_Y1137_YF] | 0.473
99 | KYLENYYDLKK [MMP3_Y41] | 2.16

biological target: FGFR3 (UniProt P22607); assay: as above
Sequence (P22607 whole entry, looked up): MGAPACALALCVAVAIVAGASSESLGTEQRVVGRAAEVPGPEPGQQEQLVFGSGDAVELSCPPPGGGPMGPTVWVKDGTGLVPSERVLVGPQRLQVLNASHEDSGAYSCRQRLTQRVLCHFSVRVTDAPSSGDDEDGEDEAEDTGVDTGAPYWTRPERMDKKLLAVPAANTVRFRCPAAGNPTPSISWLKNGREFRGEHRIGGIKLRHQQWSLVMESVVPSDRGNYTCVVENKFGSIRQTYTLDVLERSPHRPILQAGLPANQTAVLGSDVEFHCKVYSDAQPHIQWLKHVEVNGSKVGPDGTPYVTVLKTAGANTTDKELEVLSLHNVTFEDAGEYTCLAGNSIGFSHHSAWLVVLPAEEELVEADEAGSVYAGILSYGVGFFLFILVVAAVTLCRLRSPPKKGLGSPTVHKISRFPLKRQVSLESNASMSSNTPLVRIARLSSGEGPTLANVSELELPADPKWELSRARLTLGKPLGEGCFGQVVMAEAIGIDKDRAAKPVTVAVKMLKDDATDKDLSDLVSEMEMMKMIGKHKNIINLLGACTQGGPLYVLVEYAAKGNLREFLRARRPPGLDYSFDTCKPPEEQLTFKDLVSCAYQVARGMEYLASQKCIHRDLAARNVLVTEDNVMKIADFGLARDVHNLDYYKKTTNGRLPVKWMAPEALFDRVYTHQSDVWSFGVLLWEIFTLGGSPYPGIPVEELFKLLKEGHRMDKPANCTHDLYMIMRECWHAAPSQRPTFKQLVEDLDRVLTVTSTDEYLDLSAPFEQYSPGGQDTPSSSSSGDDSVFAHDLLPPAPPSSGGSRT

Row | Sequence | phosphorylation enrichment
100 | AVRFIYTIDGS [DCX_Y105_G100A_YF] | 0.697
101 | EPFELYCEMGS [CBL_Y371_Q367P_YF] | 1.22
102 | DPHQQYYIAMD [TBX15_Y159] | 4.36
103 | ATQDDYVLEVR [PTPRZ1_Y2179] | 0.701
104 | NVTGHYISPFH [PPA2_Y59] | 0.422
105 | FYVVRYCWLRR [MPZ_Y181] | 0.614
106 | AGDGRYEVLFL [SEMA3F_Y478_A474G] | 0.786
107 | EVASVYQSYQP [MAVS_Y92] | 0.568
108 | RLRKYYLGKYL [KLB_Y906] | 0.528
109 | TGNGFYFRVFS [MYBPC3_Y1136_I1131T_YF] | 0.763
110 | PVKTPYSLKRW [BMPR2_Y979_R974P] | 0.789
111 | LTNDRYLATLT [IL6ST_Y396] | 0.586
112 | STKELYEKYMI | 0.591
113 | VLALWYFFLTN [ZDHHC23_Y127_H132N_YF] | 1.94
114 | GPTLSYGRDGR [MATR3_Y158] | 0.377
115 | RGKDNYETSQL [SPP1_Y225_S224N] | 0.634
116 | SLDLSYYPTSS [EMD_Y181] | 2.18

Row | Sequence | phosphorylation enrichment
117 | VPFAQYLAMNK [HARS1_Y138_R137Q] | 0.536
118 | PYRFIYMAVQH [PTPN11_Y515_Q510P] | 1.76
119 | QITQVCGFYDE [PPP2CA_Y127_Y127C] | 0.995
120 | TVQIMYGCDVG [HLA-A_Y123_I119V] | 0.917
121 | SIFKDYFRFNF [PLA2G2D_Y85_YF] | 2.58
122 | KIKLNYTLPQD [NRAP_Y523_N519I] | 0.623
123 | EFEGLYQEGGG [TMEM159_Y159] | 0.612
124 | EEQKKYFNAMK [SCN5A_Y1494_YF] | 0.656
125 | TEDELYQLFLQ [RASGRP2_Y378_S381F] | 1.9
126 | SLKEFYGEDAK [ALDH3A1_Y272] | 0.692
127 | FPQARYHWLVL [APTX_Y214_K211Q_YF] | 1.48
128 | FADIAYNYHHG [PAH_Y166_R169H] | 0.525
129 | DHFNQYEQQKM [CHD7_Y75_YF] | 0.582
130 | ALAPKYHGGGG [HBB_Y146_H144P] | 0.248
131 | NFDRVYIFHLR [MYOF_Y1137_YF] | 0.897
132 | KYLENYYDLKK [MMP3_Y41] | 4.8
